Measurements: US20240262791

System: dPsCas13b-133FSY (in HEK293T) A133FSY (fluorosulfate-L-tyrosine) (Prevotella sp. P5-125)
Assay: pulldown
Details: RIP RT-qPCR in HEK293T; no enrichment without crRNA

## crACTB guide ; ACTB mRNA
  binding signal (fold over dPsCas13b-WT): 4
